Assay results taken from the supplement of paper PMC9233669.
Variants at the floor of the assay were thinned out.

What was measured:
biotinyl-Phe-oxazolone = test: self-aminoacylation, catalytic enhancement (BFO) (fold over background); higher = more active; k-Seq, kA / k0A0; sequences stand for … in GGGAAUGGAUCCACAUCUACGAAUUC…UUCACUGCAGACUUGACGAAGCUG
Method in brief: (§1)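 Catalytic enhancement equals the median kA over the uncatalyzed rate, the latter read from the low-activity peak of a bimodal Gaussian fit. Values of kA came from fitting each sequence's fraction reacted to a pseudo-first-order model, with 1000 bootstraps. Reacted RNA was captured with streptavidin and quantified by triplicate qPCR and Illumina sequencing after 90 minutes at room temperature with 2–1250 μM biotinyl-aminoacyl-oxazolone and 0.43 μM mutagenized RNA pools bearing a 21-nt variable region.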

biotinyl-Ile-oxazolone = test: self-aminoacylation, catalytic enhancement (BIO) (fold over background); higher = more active; k-Seq, kA / k0A0; sequences stand for … in GGGAAUGGAUCCACAUCUACGAAUUC…UUCACUGCAGACUUGACGAAGCUG
Method in brief: as §1

biotinyl-Met-oxazolone = test: self-aminoacylation, catalytic enhancement (BMO) (fold over background); higher = more active; k-Seq, kA / k0A0; sequences stand for … in GGGAAUGGAUCCACAUCUACGAAUUC…UUCACUGCAGACUUGACGAAGCUG
Method in brief: as §1

biotinyl-Val-oxazolone = test: self-aminoacylation, catalytic enhancement (BVO) (fold over background); higher = more active; k-Seq, kA / k0A0; sequences stand for … in GGGAAUGGAUCCACAUCUACGAAUUC…UUCACUGCAGACUUGACGAAGCUG
Method in brief: as §1

biotinyl-Leu-oxazolone = test: self-aminoacylation, catalytic enhancement (BLO) (fold over background); higher = more active; k-Seq, kA / k0A0; sequences stand for … in GGGAAUGGAUCCACAUCUACGAAUUC…UUCACUGCAGACUUGACGAAGCUG
Method in brief: as §1

biotinyl-Trp-oxazolone = test: self-aminoacylation, catalytic enhancement (BWO) (fold over background); higher = more active; k-Seq, kA / k0A0; sequences stand for … in GGGAAUGGAUCCACAUCUACGAAUUC…UUCACUGCAGACUUGACGAAGCUG
Method in brief: as §1

Sequence | self-aminoacylation (biotinyl-Phe-oxazolone) | self-aminoacylation (biotinyl-Ile-oxazolone) | self-aminoacylation (biotinyl-Met-oxazolone) | self-aminoacylation (biotinyl-Val-oxazolone) | self-aminoacylation (biotinyl-Leu-oxazolone) | self-aminoacylation (biotinyl-Trp-oxazolone)
AUUACCCUACUCAUCGAGUGA [Fam2.1 aminoacylation ribozyme variant] | 35.1 | 3.24 | 7.19 | 3.19 | 6.54 | 9
AUUACCCUAGGUCAUCGGGUG [Fam2.2 aminoacylation ribozyme variant] | 51.7 | 5.23 | 8.02 | 5.13 | 11.9 | 8.1
AUUACCCUAGUAAUCGAGUGA [Fam2.1 aminoacylation ribozyme variant] | 46.5 | 3.08 | 6.75 | 3.18 | 7.45 | 9.47
AUUACCCUAGUCAACGAGUGA [Fam2.1 aminoacylation ribozyme variant] | 25.6 | 3.09 | 5.11 | 3.26 | 5.35 | 6.9
AUUACCCUAGUCAUAGAGUGA [Fam2.1 aminoacylation ribozyme variant] | 32.7 | 4.22 | 7.98 | 3.95 | 7.72 | 9.37
AUUACCCUAGUCAUCCAGUGA [Fam2.1 aminoacylation ribozyme variant] | 3.4 | 1.91 | 2.29 | 1.94 | 2.86 | 3.28
AUUACCCUAGUCAUCGAGUAA [Fam2.1 aminoacylation ribozyme variant] | 0.698 | 1.28 | 1.36 | 1.24 | 1.19 | 0.823
AUUACCCUAGUCAUCGAGUGU [Fam2.1 aminoacylation ribozyme variant] | 6.11 | 1.95 | 2.47 | 1.95 | 2.55 | 2.62
AUUACCCUAGUCAUCGGGUGA [Fam2.1 aminoacylation ribozyme variant] | 49.2 | 4.76 | 7.55 | 4.8 | 8.62 | 9.08
AUUACCCUAGUCAUGGAGUGA [Fam2.1 aminoacylation ribozyme variant] | 15.5 | 2.79 | 4.31 | 2.68 | 4.06 | 5.17
AUUACCCUCGUAAUCGAGUGA [Fam2.1 aminoacylation ribozyme variant] | 120 | 6.62 | 16 | 7.73 | 17.2 | 21.7
AUUACCCUCGUCACCGAGUGA [Fam2.1 aminoacylation ribozyme variant] | 21.2 | 2.33 | 4.34 | 2.74 | 4.63 | 5.5
AUUACCCUCGUCAUCGACUGA [Fam2.1 aminoacylation ribozyme variant] | 0.811 | 0.735 | 0.868 | 0.877 | 0.644 | 0.555
AUUACCCUCGUCCUCGAGUGA [Fam2.1 aminoacylation ribozyme variant] | 34.7 | 2.48 | 4.67 | 2.4 | 5.49 | 6.18
AUUACCCUCGUCUUCGAGUGA [Fam2.1 aminoacylation ribozyme variant] | 29.4 | 2.8 | 5.15 | 3.24 | 5.17 | 7.17
AUUACCCUGAUCACCGAGUGA [Fam2.1 aminoacylation ribozyme variant] | 42.1 | 3.08 | 7.33 | 3.74 | 7.42 | 6.75
AUUACCCUGAUCAUCGAGUAA [Fam2.1 aminoacylation ribozyme variant] | 1.09 | 1.25 | 1.33 | 1.32 | 1.02 | 0.877
AUUACCCUGAUCAUCGAGUGU [Fam2.1 aminoacylation ribozyme variant] | 5.33 | 1.81 | 4.23 | 2.24 | 3.28 | 5.04
AUUACCCUGAUCAUCGCGUGA [Fam2.1 aminoacylation ribozyme variant] | 99.5 | 5.83 | 14.7 | 7.01 | 14.1 | 14.9
AUUACCCUGAUCAUCUAGUGA [Fam2.1 aminoacylation ribozyme variant] | 56.9 | 5.67 | 13.5 | 6.47 | 11.2 | 15.6
AUUACCCUGAUCAUGGAGUGA [Fam2.1 aminoacylation ribozyme variant] | 53.6 | 4.86 | 10.8 | 4.92 | 10.5 | 13
AUUACCCUGAUCGUCGAGUGA [Fam2.1 aminoacylation ribozyme variant] | 0.434 | 0.89 | 0.75 | 0.862 | 0.865 | 0.86
AUUACCCUGAUUAUCGAGUGA [Fam2.1 aminoacylation ribozyme variant] | 117 | 7.51 | 17.9 | 7.28 | 17.4 | 22
AUUACCCUGCCCAUCGAGUGA [Fam2.1 aminoacylation ribozyme variant] | 38.9 | 2.94 | 5.7 | 3.23 | 5.53 | 6.52
AUUACCCUGCUCAGCGAGUGA [Fam2.1 aminoacylation ribozyme variant] | 18.5 | 2.24 | 3.61 | 2.76 | 3.79 | 4.77
AUUACCCUGCUCAUAGAGUGA [Fam2.1 aminoacylation ribozyme variant] | 57.5 | 3.87 | 9.74 | 4.28 | 8.96 | 10.7

Sequence | self-aminoacylation (biotinyl-Phe-oxazolone) | self-aminoacylation (biotinyl-Ile-oxazolone) | self-aminoacylation (biotinyl-Met-oxazolone) | self-aminoacylation (biotinyl-Val-oxazolone) | self-aminoacylation (biotinyl-Leu-oxazolone) | self-aminoacylation (biotinyl-Trp-oxazolone)
AUUACCCUGCUCAUCGAAUGA [Fam2.1 aminoacylation ribozyme variant] | 0.772 | 0.867 | 0.845 | 0.974 | 0.735 | 1.32
AUUACCCUGCUCGUCGAGUGA [Fam2.1 aminoacylation ribozyme variant] | 0.752 | 0.725 | 0.533 | 0.766 | 0.689 | 0.43
AUUACCCUGCUUAUCGAGUGA [Fam2.1 aminoacylation ribozyme variant] | 2.4 | 1.29 | 1.64 | 1.37 | 1.96 | 2.33
AUUACCCUGGAAAUCGAGUGA [Fam2.1 aminoacylation ribozyme variant] | 149 | 8.3 | 19.4 | 8.39 | 20.8 | 22.6
AUUACCCUGGACACCGAGUGA [Fam2.1 aminoacylation ribozyme variant] | 4.62 | 2.15 | 4.14 | 1.83 | 3.5 | 3.99
AUUACCCUGGACAUGGAGUGA [Fam2.1 aminoacylation ribozyme variant] | 57.2 | 3.74 | 8.57 | 3.69 | 9.2 | 10.6
AUUACCCUGGCCAUCCAGUGA [Fam2.1 aminoacylation ribozyme variant] | 35.9 | 4.38 | 7.34 | 4.01 | 8.23 | 7.75
AUUACCCUGGCCAUCGAAUGA [Fam2.1 aminoacylation ribozyme variant] | 1.84 | 1 | 0.928 | 1.31 | 1.4 | 0.331
AUUACCCUGGCCAUCGAGUGG [Fam2.1 aminoacylation ribozyme variant] | 2.71 | 1.26 | 1.72 | 1.17 | 1.95 | 1.66
AUUACCCUGGCCAUCGCGUGA [Fam2.1 aminoacylation ribozyme variant] | 56.3 | 4.28 | 6.31 | 4.81 | 11 | 8.64
AUUACCCUGGCCAUCGGGUGA [Fam2.1 aminoacylation ribozyme variant] | 49.1 | 3.8 | 8.01 | 6.42 | 9.65 | 11.8
AUUACCCUGGCCCUCGAGUGA [Fam2.1 aminoacylation ribozyme variant] | 24.1 | 2.5 | 4.04 | 3.42 | 4.5 | 3.6
AUUACCCUGGGCAACGAGUGA [Fam2.1 aminoacylation ribozyme variant] | 57.4 | 3.81 | 7.64 | 4 | 10.3 | 10.3
AUUACCCUGGGCAUCAAGUGA [Fam2.1 aminoacylation ribozyme variant] | 2.16 | 1.16 | 1.76 | 1.37 | 1.73 | 1.64
AUUACCCUGGGCAUGGAGUGA [Fam2.1 aminoacylation ribozyme variant] | 40.7 | 3.35 | 7.29 | 3.13 | 8.39 | 8.01
AUUACCCUGGGCCUCGAGUGA [Fam2.1 aminoacylation ribozyme variant] | 22.6 | 2.41 | 3.15 | 2.61 | 3.74 | 4.65
AUUACCCUGGUAACCGAGUGA [Fam2.1 aminoacylation ribozyme variant] | 96.5 | 5.22 | 12.5 | 5.58 | 12.2 | 14.2
AUUACCCUGGUAAUCAAGUGA [Fam2.1 aminoacylation ribozyme variant] | 16.1 | 1.71 | 3.27 | 1.73 | 3.14 | 3.48
AUUACCCUGGUAAUCGAGAGA [Fam2.1 aminoacylation ribozyme variant] | 0.58 | 1.02 | 0.722 | 0.78 | 0.723 | 0.573
AUUACCCUGGUAAUCGAGUGU [Fam2.1 aminoacylation ribozyme variant] | 19.2 | 2.17 | 5.16 | 2.22 | 5.04 | 4.99
AUUACCCUGGUAAUCUAGUGA [Fam2.1 aminoacylation ribozyme variant] | 86.4 | 5.57 | 13 | 5.92 | 12.4 | 15.9
AUUACCCUGGUAAUGGAGUGA [Fam2.1 aminoacylation ribozyme variant] | 55.9 | 3.32 | 8.43 | 3.73 | 8.53 | 9.08
AUUACCCUGGUCAACGACUGA [Fam2.1 aminoacylation ribozyme variant] | 0.635 | 0.653 | 0.47 | 0.66 | 0.523 | 0.514
AUUACCCUGGUCAACGAGUGA [Fam2.1 aminoacylation ribozyme variant] | 22.4 | 3.43 | 6.11 | 3.6 | 5.99 | 7.31
AUUACCCUGGUCAACGAGUGC [Fam2.1 aminoacylation ribozyme variant] | 0.478 | 0.908 | 0.848 | 0.903 | 1.01 | 0.892
